Substrate: CC(C)C[C@H](N)C(=O)O
Assay: alpha-ketoisocaproate formation, Michaelis-Menten fit
Format: biochemical, Proteus vulgaris
Settings: 20 mM phosphate pH 7.5, 37 °C, 0-175 mM L-leucine (b36 says optimal temperature and pH), Triton X-100 purified enzyme
Description: alpha-ketoisocaproate formation, Michaelis-Menten fit on L-amino acid deaminase (L-AAD) from Proteus vulgaris

B1: L-amino acid deaminase (L-AAD) from Proteus vulgaris (Proteus vulgaris) (protein)
chain: MAISRRKFIIGGTVVAVAAGAGILTPMLTREGRFVPGTPRHGFVEGTEGALPKQADVVVVGAGILGIMTAINLVERGLSVVIVEKGNIAGEQSSRFYGQAISYKMPDETFLLHHLGKHRWREMNAKVGIDTTYRTQGRVEVPLDEEDLVNVRKWIDERSKNVGSDIPFKTRIIEGAELNQRLRGATTDWKIAGFEEDSGSFDPEVATFVMAEYAKKMGVRIYTQCAARGLETQAGVISDVVTEKGAIKTSQVVVAGGVWSRLFMQNLNVDVPTLPAYQSQQLISGSPTAPGGNVALPGGIFFREQADGTYATSPRVIVAPVVKESFTYGYKYLPLLALPDFPVHISLNEQLINSFMQSTHWNLDEVSPFEQFRNMTALPDLPELNASLEKLKAEFPAFKESKLIDQWSGAMAIAPDENPIISEVKEYPGLVINTATGWGMTESPVSAELTADLLLGKKPVLDPKPFSLYRF
Work on B1 yielded a Km of 17.71 mM, a kcat of 1.41 s⁻¹ and a kcat/Km of 79.5 M⁻¹ s⁻¹.
